Patent US20220242939A1 (BIOARCTIC, published 2022)
Non-standard residues stand in square brackets, D forms with d. No end group written: not given here. Ahx = NCCCCCC(=O)O

T1: G200 N-terminal neo-epitope peptide GQPLQE-Acp-C (SEQ ID NO:50) conjugated to BSA (human, not fully specified (residue 8); printed as GQPLQE-Acp-C; also: C-terminal Cys conjugated to BSA carrier)
T1 construct: also called G200-BSA peptide; G200-peptide
T1 peptide: GQPLQE[Ahx]C

T2: negative control peptide AATVGSLAGQPLQER-Acp-C (SEQ ID NO:53) conjugated to BSA (human, not fully specified (residue 17); printed as AATVGSLAGQPLQER-Acp-C; also: C-terminal Cys conjugated to BSA carrier)
T2 construct: BSA carrier; also called 192-206 BSA-conjugated peptide
T2 peptide: AATVGSLAGQPLQER[Ahx]C

T3: A199 N-terminal neo-epitope peptide AGQPLQ-Acp-C (SEQ ID NO:51) conjugated to BSA (human, not fully specified (residue 8); printed as AGQPLQ-Acp-C; also: C-terminal Cys conjugated to BSA carrier)
T3 construct: BSA carrier; also called A199-BSA peptide
T3 peptide: AGQPLQ[Ahx]C

T4: L198 N-terminal neo-epitope peptide LAGQPLQE-Acp-C (SEQ ID NO:54) conjugated to BSA (human, not fully specified (residue 10); printed as LAGQPLQE-Acp-C; also: C-terminal Cys conjugated to BSA carrier)
T4 construct: BSA carrier
T4 peptide: LAGQPLQE[Ahx]C

T5: L198 N-terminal neo-epitope peptide LAGQPL-Acp-C (SEQ ID NO:52) conjugated to BSA (human, not fully specified (residue 8); printed as LAGQPL-Acp-C; also: C-terminal Cys conjugated to BSA carrier)
T5 construct: BSA carrier; also called L198-BSA peptide
T5 peptide: LAGQPL[Ahx]C

B1: 6F4, monoclonal anti-L198 antibody (antibody, IgG1, V domains shown)
VH: EVNLEESGGDLVQPGRSLKLSCVASGFTFSDYWMNWVRQSPEKGLEWVAQIRLKSDNYVTHYVESLKGRFTISRDDSRSCVYLQMNNLRAEDTGIYYCTGHILLRRRYFDVWGTGTTVTVSS
VL: DIVMTQSQKFMSTSVGDRVSVTCEASQNVGTNVAWYQQKPGQSPKGLIYSASYRYSGVPDRFTGSGSGTDFTLTISTVQSEDLAEYFCHQFNTYPYTFGGGTTLEII
B2: 21C3, hybridoma monoclonal antibody (unpurified supernatant) (antibody, V domains shown)
VH: EVQLVESGGDLVKPGGSLKLSCAASGFTFSSYAMSWVRQSPEKRLEWVAEISGSGSRDHYTDSVTGRFTVSRDNAKNTLYLEMSSLRSEDTAIYYCARQLTGTDYYGTDYWGQGTSVTVSS
VL: DVLMTQIPLSLPVSLGDQASISCRSSQSIVYSNGNTYLEWYLQRPGQSPKLLIYKVSNRFSGVPDRFSGSGSGTDFTLKISRVEAEDLGVYYCFQGSHLPYTFGGGTKLEIK
notes: same VH and VL as 4E6; not made as recombinant antibody

Key:
[1] = target: T6, recombinant C-terminal ApoE fragment L198-HIS (ApoE-L198-H299-10xHIS) (human, UniProt P02649 216-317); experiment: direct ELISA, L198-HIS coated at 0.1 µM
T6 construct: also called L198-HIS fragment
T6 sequence (P02649 other isoform, or with tags, fused parts or gaps limits assumed): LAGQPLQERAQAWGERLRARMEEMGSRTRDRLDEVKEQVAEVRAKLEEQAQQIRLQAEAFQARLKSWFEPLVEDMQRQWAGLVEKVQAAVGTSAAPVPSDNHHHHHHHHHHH
In short: (§1)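 Antigens were coated overnight at 4 °C in PBS, then plates were blocked with protein-free blocker for 1 h. Purified mAbs in 3-fold serial dilutions from 3 μg/ml were bound for 2 h at room temperature, with anti-ApoE C-terminal E-8 as reference. TMB substrate development was stopped with H2SO4 and OD450 was read.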

[2] = target: T7, full-length ApoE in human brain extract from Alzheimer's disease patients (human, UniProt P02649 19-317); experiment: Western blot of AD brain RIPA 2% SDS extract; monoclonal antibody at 2 ug/ml as primary antibody
T7 construct: mature; Endogenous protein on Western blot or in solution (IP); also called ApoE full-length protein
T7 sequence (P02649 19-317): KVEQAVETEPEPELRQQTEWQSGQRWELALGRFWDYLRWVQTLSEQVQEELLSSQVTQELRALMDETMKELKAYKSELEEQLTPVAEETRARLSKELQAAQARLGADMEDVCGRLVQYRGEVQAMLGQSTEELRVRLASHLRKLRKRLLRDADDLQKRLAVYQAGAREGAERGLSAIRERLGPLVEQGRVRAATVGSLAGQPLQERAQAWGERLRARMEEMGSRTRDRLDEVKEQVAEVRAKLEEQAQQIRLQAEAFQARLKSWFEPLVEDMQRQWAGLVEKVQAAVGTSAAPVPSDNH

[3] = target: T1, G200 N-terminal neo-epitope peptide …; experiment: direct ELISA; proteins coated at 0.1 uM, BSA peptides at 1 ug/ml; antibody in 3-fold dilutions from 3000 ng/ml; blank reduced OD 450 nm
Procedure: (§2) Selectivity evaluation of purified monoclonal antibodies by direct ELISA: The direct ELISA described below was used to evaluate the binding selectivity of the purified monoclonal antibodies produced in Example 14.
(§3) The screening was performed according to standard ELISA protocols. Briefly, 1 μg/ml solutions of BSA-conjugated neo-epitope peptides and negative control peptide, and 0.1 μM recombinant C-terminal ApoE fragment and full-length ApoE (Abcam, cat. no. ab50243) were prepared by dilution in PBS. 50 μl/well were added to an ELISA half-area 96 well microtiter plate, and the plate was sealed with adhesive sealer and incubated over night at 4° C. After discarding the solution, the plates were blocked with 150 μl/well of protein-free blocking solution (Pierce) for 1 h at room temperature with shake (600-900 rpm). The plates were washed four times with washing buffer containing 0.28 mM NaH₂PO₄, 2.5 mM Na₂HPO₄, 150 mM NaCl, 0.1% TWEEN®-20 and 0.0075% Kathon CG. Purified monoclonal antibodies of interest were 3-fold serially diluted with a starting dilution at 3 μg/ml (mixed 1:2 with dilution buffer (PBS with 0.1% BSA and 0.05% TWEEN®-20)). An anti-ApoE C-terminal antibody was used as a reference antibody (ApoE E-8 mouse monoclonal, Santa Cruz Biotechnology, cat. no. sc-393302). 50 μl/well were added into the ELISA plates and incubated for 2 h at room temperature with shake (600-900 rpm). The plates were washed four times as described previously. […] After another wash (as described previously), 50 μl/well of K-Blue® aqueous substrate (Neogen) were added, and the reaction was stopped after 5-15 min with 50 μl/well of 0.5 M […]. The optical density at 450 nm was read using an ELISA reader (Tecan).

[4] = target: T2, negative control peptide …; experiment: as above
Procedure: as §2, §3

[5] = target: T8, recombinant full-length ApoE4 (aa 1-299; SEQ ID NO:45; Abcam cat. no. ab50243) (human, UniProt P02649 19-317); experiment: as above
T8 construct: Bought protein; also called recombinant ApoE4 full-length protein
T8 sequence (P02649 19-317 C130R limits assumed): as the sequence (P02649 19-317) above, with C112R counted along it
Procedure: as §2, §3

[6] = target: T3, A199 N-terminal neo-epitope peptide …; experiment: as above
Procedure: as §2, §3

[7] = target: T4, L198 N-terminal neo-epitope peptide …; experiment: direct ELISA after limiting dilution
[8] = target: T9, His-tagged recombinant full-length ApoE4, 10xHIS-ApoE4(1-299) (human, UniProt P02649 19-317); experiment: direct ELISA
T9 construct: also called ApoE4-FL-HIS
T9 sequence (P02649 other isoform, or with tags, fused parts or gaps limits assumed): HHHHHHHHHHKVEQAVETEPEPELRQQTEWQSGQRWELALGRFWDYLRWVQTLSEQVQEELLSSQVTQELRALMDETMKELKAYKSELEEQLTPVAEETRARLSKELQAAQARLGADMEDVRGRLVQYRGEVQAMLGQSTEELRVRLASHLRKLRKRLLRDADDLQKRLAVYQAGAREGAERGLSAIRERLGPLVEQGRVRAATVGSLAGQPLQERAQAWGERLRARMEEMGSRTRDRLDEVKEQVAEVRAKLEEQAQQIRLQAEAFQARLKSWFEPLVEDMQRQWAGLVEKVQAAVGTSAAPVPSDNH

[9] = target: T5, L198 N-terminal neo-epitope peptide …; experiment: direct ELISA, L198-BSA peptide coated at 1 µg/ml
In short: as §1

[10] = target: T1, G200 N-terminal neo-epitope peptide …; experiment: direct ELISA, target coated at 1 ug/ml, supernatant in 3-fold dilutions from 1000 ng/ml, OD 450 nm
Procedure: (§4) Selectivity evaluation by direct ELISA: The direct ELISA described below was used to evaluate the binding selectivity of generated monoclonal anti-ApoE antibodies with affinity for the N-terminal neo-epitope of C-terminal ApoE fragments starting at amino acid G200.
(§5) The screening was performed according to standard ELISA protocols. Briefly, 1 μg/ml solutions of N-terminal neo-epitope peptide (SEQ ID NO:50) conjugated to BSA, the recombinant C-terminal ApoE fragment G200-HIS (SEQ ID NO:48) and recombinant full-length ApoE4 (SEQ ID NO:45; Abcam; cat. no. ab50243) were prepared by dilution in PBS. 50 μl/well were added to an ELISA half-area 96 well microtiter plate. Then, the plate was sealed with adhesive sealer and incubated over night at 4° C. The plates were blocked with 150 μl/well of protein-free blocking solution (Pierce) for 1 h at room temperature with shake (600-900 rpm). The plates were washed four times with washing buffer containing 0.28 mM NaH₂PO₄, 2.5 mM Na₂HPO₄, 150 mM NaCl, 0.1% TWEEN®-20 and 0.0075% Kathon CG. Antibodies of interest were serially diluted 3-fold with a starting dilution at 1 μg/ml (mixed 1:1 with dilution buffer: PBS with 0.1% BSA and 0.05% TWEEN®-20) and incubated for 2 h at room temperature. The plates were washed four times as before. […] After another wash (as above), 50 μl/well of K-Blue® aqueous substrate (Neogen) were added, and the reaction was stopped after 5-15 min with 50 μl/well of 0.5 M […]. The optical density at 450 nm was read using an ELISA reader (Tecan). The optical density was plotted against the antibody concentration to generate concentration-response curves (FIG. 14).

[11] = target: T8, recombinant full-length ApoE4 (aa …); experiment: as above
Procedure: as §4, §5

[12] = target: T10, recombinant C-terminal ApoE fragment G200-HIS (ApoE-G200-H299-10xHIS) (human, UniProt P02649 218-317); experiment: as above
T10 construct: also called G200-HIS fragment
T10 sequence (P02649 other isoform, or with tags, fused parts or gaps limits assumed): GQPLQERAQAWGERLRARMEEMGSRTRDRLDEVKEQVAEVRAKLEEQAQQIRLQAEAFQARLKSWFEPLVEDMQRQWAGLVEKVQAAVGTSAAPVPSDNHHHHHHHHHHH
Procedure: as §4, §5

[13] = target: T7, full-length ApoE in human brain extract …; experiment: Western blot, human AD brain extract, hybridoma supernatant (data not shown for 21C3)
Description: Selectivity evaluation and human target binding in Alzheimer's disease brain extracts by Western blot analysis: The Western blot analysis described below was used to evaluate selective binding of monoclonal antibodies with affinity for the N-terminal neo-epitope of ApoE fragments […], starting at G200, without binding to ApoE full-length protein, in human brain extracts from an Alzheimer's disease patient. Fresh frozen brain tissue from the Alzheimer's disease patient was homogenized in RIPA 2% SDS extraction buffer, followed by centrifugation at 16000×g for 1 h. The subsequent supernatant was subjected to standard protein concentration determination.
RIPA 2% SDS brain extract containing 80 μg total protein was mixed with 2×Laemmli sample buffer, boiled for 5 min at 95° C. and loaded onto SDS-PAGE gels (Bolt™ 12% Bis-Tris Plus 10 well, Thermo Fisher, cat. no. NW00120BOX). Gels were run for 30-40 min at 180 V, after which proteins were transferred from the gels to nitrocellulose membranes using the Trans-Blot® Turbo™ system (Bio-Rad). Membranes were blocked in Odyssey® blocking buffer for 1 h and incubated over night at room temperature with hybridoma supernatant diluted 1:1 in Odyssey® blocking buffer with 0.1% TWEEN®-20. […]

Row | Binder | EC50 [1] [ng/mL] | binding result [2] | binding result [3] | binding result [4] | binding result [5] | binding result [6] | binding result [7] | binding result [8] | EC50 [9] [ng/mL] | EC50 (read off the curve) [10] [ng/mL] | binding result [11] | EC50 (read off the curve) [12] [ng/mL] | binding result [13]
1 | B1 | 18.5 | no binding (tested: 2 ug/ml (text)) | no binding (tested: 3000 ng/ml) | no binding (tested: 3000 ng/ml) | no binding (tested: 3000 ng/ml) | no binding (tested: 3000 ng/ml) | binds | no binding (tested: 3 µg/ml) | 13.5 |  |  |  | 
2 | B2 |  |  |  |  |  |  |  |  |  | ~4 | no binding (tested: 1000 ng/ml) | ~4 | no binding
